Source: patent US20030143669

Key:
[1] = tested on: Insect-expressed epitope-tagged human phosphodiester α-GlcNAcase lacking the pro-sequence
[2] = tested on: CHO-expressed epitope-tagged, soluble human phosphodiester α-GlcNAcase

Q: Furin was tested. Which “Western blot of cleavage; UCE activity” value [1] did it give?
A: the insect-derived UCE is not cleaved by furin as shown by the single UCE form

Q: What about the “UCE activity, % increase relative to the minus Furin samples” value [2] of the same substance?
A: up to 130% increase in activity

Q: And the “Western blot of cleavage (pro-UCE to mature UCE)” value [2]?
A: the CHO-derived UCE is sensitive to furin cleavage as shown by the progressive conversion of the pro-UCE to the mature form
